Laboratory results taken from US20210380679A1 (INHIBRX BIOSCIENCES, published 2021).
Positions count from the first letter of the chain named. Blank lines part the entries; values can stand above or below the binder they belong to.

Key:
[1] = target: T1, human DLL3 (Delta-like ligand 3) (human, UniProt Q9NYJ7 27-618); experiment: flow cytometry, SHP-77 cells
T1 construct: endogenous on SHP-77 cells; also called cell-surface DLL3
T1 sequence: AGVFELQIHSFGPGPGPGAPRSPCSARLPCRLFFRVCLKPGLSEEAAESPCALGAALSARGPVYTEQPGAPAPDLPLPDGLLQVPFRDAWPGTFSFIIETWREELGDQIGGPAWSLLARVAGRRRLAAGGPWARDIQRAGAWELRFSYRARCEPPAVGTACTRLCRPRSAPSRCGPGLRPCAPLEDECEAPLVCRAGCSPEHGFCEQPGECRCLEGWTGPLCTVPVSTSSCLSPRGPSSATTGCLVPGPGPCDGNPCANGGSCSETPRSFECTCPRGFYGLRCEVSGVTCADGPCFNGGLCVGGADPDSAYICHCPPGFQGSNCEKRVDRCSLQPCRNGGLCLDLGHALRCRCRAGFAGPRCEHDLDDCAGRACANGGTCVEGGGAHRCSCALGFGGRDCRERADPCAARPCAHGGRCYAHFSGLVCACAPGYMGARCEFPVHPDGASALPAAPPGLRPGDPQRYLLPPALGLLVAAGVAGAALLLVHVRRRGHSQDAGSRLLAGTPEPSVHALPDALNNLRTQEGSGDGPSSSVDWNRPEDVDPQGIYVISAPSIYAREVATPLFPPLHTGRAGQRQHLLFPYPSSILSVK
Description: (§1) Binding of exemplary DLL3-targeting constrained CD3 engaging constructs of the disclosure, referred to herein as cx4720, cx3715, cx4422, cx3708, cx4052, cx3985, cx4059, cx4087, cx4088, cx4895, cx3991, cx3711, cx4887, cx4896, cx4899, cx4406, cx3707, cx3710, cx4888 and cx4890, to CD3 on the surface of primary T cells was assessed via flow cytometry (SONY SA3800 spectral analyzer) using T-cell that were negatively enriched from PBMCs isolated from healthy human donor leukopaks. Representative DLL3-targeting constrained CD3 engaging constructs were assessed for binding to T cells and DLL3 expressing cells (SHP-77). Bound cx4720, cx3715, cx4422, cx3708, cx4052, cx3985, cx4059, cx4087, cx4088, cx4895, cx3991, cx3711, cx4887, cx4896, cx4899, cx4406, cx3707, cx3710, cx4888 and cx4890 was detected with fluorophore-conjugated secondary antibodies specific for the human Fc and binding was measured by flow cytometry. Cells incubated with secondary antibody only served as negative controls.
(§2) Table E4 summarizes the affinity of exemplary molecules for DLL3 or CD3, as determined from flow cytometry, in these studies.

[2] = target: T2, CD3 on the surface of T cells (human, UniProt P07766 23-207); experiment: flow cytometry, primary human T cells
T2 construct: whole, on cells; multi-chain complex; also called CD3 epsilon
T2 sequence (P07766 23-207): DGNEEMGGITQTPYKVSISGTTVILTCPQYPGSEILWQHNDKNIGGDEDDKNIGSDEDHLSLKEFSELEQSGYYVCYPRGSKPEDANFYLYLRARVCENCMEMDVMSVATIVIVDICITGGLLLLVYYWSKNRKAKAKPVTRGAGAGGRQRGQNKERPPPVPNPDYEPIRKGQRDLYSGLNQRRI
Description: as §1, §2

[3] = target: T1, human DLL3 (Delta-like ligand 3); experiment: flow cytometry, sdAb-Fc titrated on SHP-77 cells (DLL3 positive), APC anti-human Fc secondary
Description: Specificity and relative affinity were assessed for purified sdAb-Fcs on DLL3-expressing cells. […] A titration series of the fusion protein was incubated with the DLL3-expressing cell lines (approximately 2.5×10⁴ to 5×10⁴ cells/well) for 30 minutes at 4 degrees Celsius in FACS Buffer (PBS 1% BSA, 0.1% NaN₃ pH 7.4) in 96-well plates. Following three wash steps in FACS buffer, an APC-conjugated anti-human Fcγ specific secondary antibody (Jackson ImmunoResearch) was added and incubated for 30 minutes at 4 degrees Celsius. Following three additional wash steps in FACS buffer bound antibody was detected via flow cytometry (IQue Intellicyte).

B1: cx4896 (bispecific antibody)
chain 1: EVQLVESGGGEVQPGGSLRLSCAASGSIFSINAMGWYRQAPGKQRELVAGFTGDTNTIYAESVKGRFTISRDNAKNTVYLQMSSLRAEDTAVYYCAADVQLFSRDYEFYWGQGTLVTVKPDKTHTCPPCPAPGGPSVFLFPPKPKDTLMISRTPEVTCVVVDVSHEDPEVKFNWYVDGVEVHNAKTKPREEQYNSTYRVVSVLTVLHQDWLNGKEYKCKVSNKALPAPIEKTISKAKGQPREPQVYTLPPCRDELTKNQVSLWCLVKGFYPSDIAVEWESNGQPENNYKTTPPVLDSDGSFFLYSKLTVDKSRWQQGNVFSCSVMHEALHNHYTQKSLSLSPTGGGGGSGGGGGSGGGGGSEVQLVESGGGLVQPGGSLRLSCAASGFTFNTYAMNWVRQAPGKCLEWVARIRSKYNNYATYYADSVKGRFTISRDDAKNTLYLQMSSLRAEDTAVYYCVRHGNFGNSYVSWFAYWGQGTLVTVKPEVQLVESGGGEVQPGGSLRLSCGPSEIITSDKSVGWWRQAPGKQRNLVAGISNVGSTNYAQSVKGRFTISRDNAKNTLYLQMSSLRAEDTAVYYCYARDFENEYWGQGTLVTVKP
chain 2: DKTHTCPPCPAPGGPSVFLFPPKPKDTLMISRTPEVTCVVVDVSHEDPEVKFNWYVDGVEVHNAKTKPREEQYNSTYRVVSVLTVLHQDWLNGKEYKCKVSNKALPAPIEKTISKAKGQPREPQVCTLPPSRDELTKNQVSLSCAVKGFYPSDIAVEWESNGQPENNYKTTPPVLDSDGSFFLVSKLTVDKSRWQQGNVFSCSVMHEALHNRYTQKSLSLSPTGGGGGSGGGGGSGGGGGSQAVVTQEPSLTVSPGGTVTLTCGSSTGAVTTSNYANWVQQKPGQAFRGLIGGTNKRAPGVPARFSGSLLGGKAALTISGAQPEDEADYYCALWYSNHWVFGCGTKLEIKEVQLLESGGGEVQPGGSLRLSCAASGFSFSINAMGWYRQAPGKRREFVAAIESGRNTVYAESVKGRFTISRDNAKNTVYLQMSSLRAEDTAVYYCGLLKGNRVVSPSVAYWGQGTLVTVKP
notes: also carries a 41BB sdAb
Kd [1]: 339 pM | Kd [2]: > 200000 pM

B4: L6F1 (Fc fusion)
VHH: QVQLVQSGGGLVQAGGSLRLSCGASEIIFSDKTVGWYRQAPGKQRVLVAVISNVDSTNYAQSVKGRFTISRDNAKNTVYLQMNSLKPEDTAVYYCYARDFESEYWGRGTQVTVKP
notes: tested as VHH-human Fc; Fc not specified
binding result [3]: binds

B5: L8E7 (Fc fusion)
VHH: EVQLQESGGGLVQAGGSLRLSCGPSEIITSDKSVGWWRQAPGKQRNLVAGISNVGSTNYAQSVKGRFTISRDNAKNTLFLQMNSLKPEDTAVYYCYARDFENEYWGRGTQVTVKP
notes: as for B4
binding result [3]: binds

Next, values leading:

Kd [1]: 115 pM | Kd [2]: > 200000 pM
B2: cx4720 (bispecific antibody)
chain 1: EVQLVQSGGGLVQAGGSLRLSCAASGSILSINAMGWYRQPPGKQREMVAGFTGDGNTIYADSVKGRFTISRDNAKNTVYLQMNSLKPEDTAVYYCAADVQLFSRDYEFYWGQGTQVTVKPDKTHTCPPCPAPGGPSVFLFPPKPKDTLMISRTPEVTCVVVDVSHEDPEVKFNWYVDGVEVHNAKTKPREEQYNSTYRVVSVLTVLHQDWLNGKEYKCKVSNKALPAPIEKTISKAKGQPREPQVYTLPPCRDELTKNQVSLWCLVKGFYPSDIAVEWESNGQPENNYKTTPPVLDSDGSFFLYSKLTVDKSRWQQGNVFSCSVMHEALHNHYTQKSLSLSPTGGGGGSGGGGGSGGGGGSEVQLVESGGGLVQPGGSLRLSCAASGFTFNTYAMNWVRQAPGKCLEWVARIRSKYNNYATYYADSVKGRFTISRDDAKNTLYLQMSSLRAEDTAVYYCVRHGNFGNSYVSWFAYWGQGTLVTVKPEVQLQESGGGLVQAGGSLRLSCGPSEIITSDKSVGWWRQAPGKQRNLVAGISNVGSTNYAQSVKGRFTISRDNAKNTLFLQMNSLKPEDTAVYYCYARDFENEYWGRGTQVTVKP
chain 2: B1 chain 2
notes: also carries a 41BB sdAb

Kd [1]: 134 pM | Kd [2]: > 200000 pM
B3: cx4888 (bispecific antibody)
chain 1: B1 chain 1 with G509A, P510A, Y565F
chain 2: B1 chain 2
notes: also carries a 41BB sdAb
